Numbering of substitutions follows the chain as printed.

For assay [1], the target named is T1, EGFR on EGFR-overexpressing tumor cell line A431 (Homo sapiens, A431 cells, UniProt P00533).
T1 construct: epidermal growth factor receptor on the surface of A431 cells; also used as the target of the functional rows on A549 cells; also called EGFR-positive A431 cells; source: endogenous, on A431 cells
As to the kind of experiment: flow cytometry on cells; EGFR-positive A431 cells incubated 1 h on ice with antibody derivatives 0.05 nM to 1 µM, detected with Alexa Fluor 488 Fab goat antihuman IgG (H+L); apparent binding affinities. The note with it: one partner purified.

Assay [2] deals with T1, EGFR on EGFR-overexpressing tumor cell …. As to the kind of experiment: cell-based or functional assay.

B1: 60C03 IgG (antibody)
VH: QVQLRESGPSLVKPSQTLSLTCTASGFSLSDKAVGWVRQAPGKALEWLGGIDTGGSTGYNPGLKSRLSITKDNSKSQVSLSVSSVTTEDSATYYCTTVHQETKKENSCPDGYTSGVECRFRGYTCANDGCWRVCSFTTCSGWMPASDTYRYEYHVDAWGQGLLVTVSS
VL: EAVLNQPSSVSGSLGQRVSITCSGSSSNVGNGYVSWYQLIPGSAPRTLIYGDTSRASGVPDRFSGSRSGNTATLTISSLQAEDEADYFCASAEDSSSNAVFGSGTTLTVL
notes: synthetic bovine IGHV1-7 (VHBUL) scaffold, FR1 to FR3; ultralong CDR-H3 (stalk and knob) of clone 60C03 from immunised cattle; FR4 of the synthetic VH domain; human IgG1 heavy chain constant regions; bovine VL (V30, VLλ30) deduced from PDB entries that share a CDR-identical light chain; human constant lambda region (CLλ); chimeric IgG1; all clones share one fixed light chain and VH scaffold and …
Usually EC50 stands for the concentration that produces a half-maximal response. For B1, the EC50 in assay [1] worked out at 3000 pM. Further, in assay [2], the “ADCC EC50 killing: NK cell-mediated lysis of EGFR-overexpressing A431 cells, E:T 5:1” value (“ADCC EC50 killing” for short) was determined as 26.5 pM and the “ADCC mean max killing of A431 cells (normalized to Cetuximab)” value was found to be 103%.

B2: 60C08 IgG (antibody)
VH: QVQLRESGPSLVKPSQTLSLTCTASGFSLSDKAVGWVRQAPGKALEWLGGIDTGGSTGYNPGLKSRLSITKDNSKSQVSLSVSSVTTEDSATYYCTTVHQKTIETTQKTCPDGYFYADTCWAYSCRCRDCDCCRSSGGCTYSRDSHTATYEWHVDAWGQGLLVTVSS
VL: B1 VL
notes: synthetic bovine IGHV1-7 (VHBUL) scaffold, FR1 to FR3; ultralong CDR-H3 (stalk and knob) of clone 60C08 from immunised cattle; FR4 of the synthetic VH domain; human IgG1 heavy chain constant regions; as the light chain of m3: bovine VL (V30, VLλ30) deduced from PDB entries that share a CDR-identical light chain; human constant lambda region (CLλ); chimeric IgG1; also called chimeric bovine × …
Turning to B2, the EC50 in assay [1] is 900 pM. Further, in assay [2], the “ADCC EC50 killing” value amounted to 58.7 pM and the “ADCC mean max killing of A431 cells (normalized to Cetuximab)” value was found to be 92.1%.

B3: 60D01 IgG (antibody)
VH: QVQLRESGPSLVKPSQTLSLTCTASGFSLSDKAVGWVRQAPGKALEWLGGIDTGGSTGYNPGLKSRLSITKDNSKSQVSLSVSSVTTEDSATYYCTTVHQETTKTASCPDGYAEHFGRGWGYWGCGGCDCCQENGAGGGWGNCGLYSTSYTYEHHIDAWGQGLLVTVSS
VL: B1 VL
notes: synthetic bovine IGHV1-7 (VHBUL) scaffold, FR1 to FR3; ultralong CDR-H3 (stalk and knob) of clone 60D01 from immunised cattle; FR4 of the synthetic VH domain; human IgG1 heavy chain constant regions; as the light chain of m3: bovine VL (V30, VLλ30) deduced from PDB entries that share a CDR-identical light chain; human constant lambda region (CLλ); chimeric IgG1; also called chimeric bovine × …
B3: the EC50 in assay [1] stood at 1300 pM. In addition, in assay [2], the “ADCC EC50 killing” value is 606 pM and the “ADCC mean max killing of A431 cells (normalized to Cetuximab)” value was 76.3%.

B4: 60H05 IgG (antibody)
VH: B1 VH with E101K, K103N, E105L, N106K
VL: B1 VL
notes: synthetic bovine IGHV1-7 (VHBUL) scaffold, FR1 to FR3; ultralong CDR-H3 (stalk and knob) of clone 60H05 from immunised cattle; FR4 of the synthetic VH domain; human IgG1 heavy chain constant regions; as the light chain of m3: bovine VL (V30, VLλ30) deduced from PDB entries that share a CDR-identical light chain; human constant lambda region (CLλ); chimeric IgG1; also called chimeric bovine × …
Turning to B4, the EC50 in assay [1] was determined as 2600 pM. For the same molecule, in assay [2], the “ADCC EC50 killing” value worked out at 16.4 pM and the “ADCC mean max killing of A431 cells (normalized to Cetuximab)” value was determined as 105%.

B5: 60E11 IgG (antibody)
VH: QVQLRESGPSLVKPSQTLSLTCTASGFSLSDKAVGWVRQAPGKALEWLGGIDTGGSTGYNPGLKSRLSITKDNSKSQVSLSVSSVTTEDSATYYCTTVHQRTRKTCPDGWRDGSDCPYGHRCGDYDCCGYGCYDGRGTNRFTGVVESYTYEWYVDAWGQGLLVTVSS
VL: B1 VL
notes: synthetic bovine IGHV1-7 (VHBUL) scaffold, FR1 to FR3; ultralong CDR-H3 (stalk and knob) of clone 60E11 from immunised cattle; FR4 of the synthetic VH domain; human IgG1 heavy chain constant regions; as the light chain of m3: bovine VL (V30, VLλ30) deduced from PDB entries that share a CDR-identical light chain; human constant lambda region (CLλ); chimeric IgG1; also called chimeric bovine × …
As to B5, in assay [1], the EC50 came to 10100 pM. Also, in assay [2], the “ADCC EC50 killing” value was 3.3 pM and the “ADCC mean max killing of A431 cells (normalized to Cetuximab)” value amounted to 96%.

B6: 60F06 IgG (antibody)
VH: QVQLRESGPSLVKPSQTLSLTCTASGFSLSDKAVGWVRQAPGKALEWLGGIDTGGSTGYNPGLKSRLSITKDNSKSQVSLSVSSVTTEDSATYYCTTVHQRTEKIAKCPDGYSDARHCRDGCDCFGWDCFRSGAWAECYYEVYTYVHTYEHHVDAWGQGLLVTVSS
VL: B1 VL
notes: synthetic bovine IGHV1-7 (VHBUL) scaffold, FR1 to FR3; ultralong CDR-H3 (stalk and knob) of clone 60F06 from immunised cattle; FR4 of the synthetic VH domain; human IgG1 heavy chain constant regions; as the light chain of m3: bovine VL (V30, VLλ30) deduced from PDB entries that share a CDR-identical light chain; human constant lambda region (CLλ); chimeric IgG1; also called chimeric bovine × …
As for B6, the EC50 in assay [1] amounted to 3000 pM. In addition, in assay [2], the “ADCC EC50 killing” value came to 4.8 pM and the “ADCC mean max killing of A431 cells (normalized to Cetuximab)” value came out at 108%.

(Values after article PMC8573386 (Frontiers in Immunology, 2021).)
